# Patent US20150299313A1 (Chugai, published 2015)
# Numbering of substitutions follows the chain as printed.
# T1: soluble human IL-6 receptor (human, UniProt P08887 20-357)
# T1 construct: also called hsIL-6R; hIL6R
# T1 sequence: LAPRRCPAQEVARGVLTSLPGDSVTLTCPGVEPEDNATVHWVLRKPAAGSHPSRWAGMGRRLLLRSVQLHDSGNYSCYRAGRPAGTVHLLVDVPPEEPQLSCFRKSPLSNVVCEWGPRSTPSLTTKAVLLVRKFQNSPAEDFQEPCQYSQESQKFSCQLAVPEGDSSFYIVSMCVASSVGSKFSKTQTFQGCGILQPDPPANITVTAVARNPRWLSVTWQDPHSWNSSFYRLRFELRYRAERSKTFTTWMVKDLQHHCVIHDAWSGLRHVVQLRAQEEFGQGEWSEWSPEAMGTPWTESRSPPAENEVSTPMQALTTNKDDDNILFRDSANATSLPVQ
# B1: GL1-IgG1_kif+ (antibody)
# heavy: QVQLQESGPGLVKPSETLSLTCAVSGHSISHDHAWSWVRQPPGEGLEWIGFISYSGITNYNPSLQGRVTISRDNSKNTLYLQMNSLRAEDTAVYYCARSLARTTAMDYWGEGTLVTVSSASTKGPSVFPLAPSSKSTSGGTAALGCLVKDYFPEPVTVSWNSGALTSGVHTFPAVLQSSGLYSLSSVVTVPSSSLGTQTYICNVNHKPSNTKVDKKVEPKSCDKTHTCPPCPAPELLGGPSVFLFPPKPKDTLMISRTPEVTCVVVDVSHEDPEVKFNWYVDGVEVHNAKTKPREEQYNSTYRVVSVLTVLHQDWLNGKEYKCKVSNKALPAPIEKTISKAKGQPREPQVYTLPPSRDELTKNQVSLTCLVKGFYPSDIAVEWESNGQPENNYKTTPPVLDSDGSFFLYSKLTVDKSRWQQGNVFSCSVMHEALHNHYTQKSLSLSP
# light: DIQMTQSPSSLSASVGDSVTITCQASTDISSHLNWYQQKPGKAPELLIYYGSHLLSGVPSRFSGSGSGTDFTFTISSLEAEDAATYYCGQGNRLPYTFGQGTKVEIERTVAAPSVFIFPPSDEQLKSGTASVVCLLNNFYPREAKVQWKVDNALQSGNSQESVTEQDSKDSTYSLSSTLTLSKADYEKHKVYACEVTHQGLSSPVTKSFNRGEC
# modifications: high mannose sugar chain (expressed in the presence of kifunensine)
# notes: Expressed with 10 ug/mL kifunensine in the culture; also called GL1-G1_kif+
# B2: GL5-IgG1_kif+ (antibody)
# heavy: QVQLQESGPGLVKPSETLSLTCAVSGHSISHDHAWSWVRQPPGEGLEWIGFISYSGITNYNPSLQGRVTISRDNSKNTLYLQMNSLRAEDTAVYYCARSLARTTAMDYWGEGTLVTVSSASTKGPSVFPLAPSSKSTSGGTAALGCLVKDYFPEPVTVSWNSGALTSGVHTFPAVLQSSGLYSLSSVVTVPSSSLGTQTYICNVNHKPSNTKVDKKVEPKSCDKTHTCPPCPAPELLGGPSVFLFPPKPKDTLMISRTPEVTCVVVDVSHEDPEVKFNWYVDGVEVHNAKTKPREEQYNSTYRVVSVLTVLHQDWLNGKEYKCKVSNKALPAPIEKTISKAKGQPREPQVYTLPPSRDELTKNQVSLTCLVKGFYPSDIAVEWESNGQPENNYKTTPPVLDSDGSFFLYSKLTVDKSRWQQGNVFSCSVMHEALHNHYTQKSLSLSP
# light: B1 light with S18N, Q24N
# modifications: two high mannose N-linked sugar chains (Man6-Man9 with Man9) on the light chain; high mannose sugar chain (expressed in the presence of kifunensine)
# notes: Expressed with 10 ug/mL kifunensine in the culture; also called GL5-G1_kif+
# B3: GL1-IgG1-SA (+) (antibody)
# heavy: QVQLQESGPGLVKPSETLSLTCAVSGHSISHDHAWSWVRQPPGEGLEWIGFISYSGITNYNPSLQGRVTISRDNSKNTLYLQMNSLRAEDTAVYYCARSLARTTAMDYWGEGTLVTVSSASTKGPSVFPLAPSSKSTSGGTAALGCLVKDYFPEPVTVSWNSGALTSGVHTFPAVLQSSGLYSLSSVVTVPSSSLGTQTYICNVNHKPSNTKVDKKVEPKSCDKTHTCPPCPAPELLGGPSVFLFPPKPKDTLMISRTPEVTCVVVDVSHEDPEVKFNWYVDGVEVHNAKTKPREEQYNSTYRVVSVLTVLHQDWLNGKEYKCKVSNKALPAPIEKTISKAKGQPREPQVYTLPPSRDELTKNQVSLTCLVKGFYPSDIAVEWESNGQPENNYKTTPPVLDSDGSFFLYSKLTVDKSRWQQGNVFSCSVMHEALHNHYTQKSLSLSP
# light: B1 light
# modifications: N-linked sugar chain at Asn 297 (EU numbering), sialic acid not removed
# notes: Same chains as GL1-IgG1-SA (-), not treated with sialidase; also called Fv4-IgG1
# B4: GL1-IgG1-SA (-) (antibody)
# heavy: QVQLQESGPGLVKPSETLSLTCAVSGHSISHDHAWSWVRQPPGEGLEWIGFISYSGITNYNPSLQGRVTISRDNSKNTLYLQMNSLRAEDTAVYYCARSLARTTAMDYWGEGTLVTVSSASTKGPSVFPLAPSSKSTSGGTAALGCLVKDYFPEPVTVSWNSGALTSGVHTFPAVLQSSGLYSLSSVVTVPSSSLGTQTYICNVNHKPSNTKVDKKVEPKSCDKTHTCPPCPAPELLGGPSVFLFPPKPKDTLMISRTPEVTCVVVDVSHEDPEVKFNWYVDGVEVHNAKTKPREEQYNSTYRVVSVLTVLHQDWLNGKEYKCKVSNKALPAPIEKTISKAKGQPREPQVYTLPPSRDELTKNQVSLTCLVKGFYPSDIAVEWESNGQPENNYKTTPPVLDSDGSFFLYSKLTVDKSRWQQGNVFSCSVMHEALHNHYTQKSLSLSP
# light: B1 light
# modifications: N-linked sugar chain at Asn 297 (EU numbering), terminal sialic acid removed
# notes: also called GL1-IgG1 treated with neuraminidase/sialidase; Fv4-IgG1
# B5: GL5-IgG1-SA (-) (antibody)
# heavy: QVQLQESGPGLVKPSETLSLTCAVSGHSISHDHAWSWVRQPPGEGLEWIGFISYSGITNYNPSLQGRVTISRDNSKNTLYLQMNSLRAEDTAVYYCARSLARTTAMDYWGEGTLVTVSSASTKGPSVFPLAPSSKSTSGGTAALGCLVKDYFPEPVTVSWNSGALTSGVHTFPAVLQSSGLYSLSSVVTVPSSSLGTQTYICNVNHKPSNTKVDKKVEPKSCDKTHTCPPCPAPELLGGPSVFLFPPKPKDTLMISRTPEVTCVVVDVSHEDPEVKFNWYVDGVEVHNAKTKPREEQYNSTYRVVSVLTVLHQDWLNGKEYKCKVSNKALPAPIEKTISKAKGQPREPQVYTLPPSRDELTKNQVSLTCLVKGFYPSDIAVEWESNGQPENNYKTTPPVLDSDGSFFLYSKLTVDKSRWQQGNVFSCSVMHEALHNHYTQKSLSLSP
# light: B1 light with S18N, Q24N
# modifications: N-linked sugar chains at two sites of the light chain (Asn 20 and Asn 24, Kabat), sialic acid removed; N-linked sugar chain at Asn 297 (EU numbering), terminal sialic acid removed
# notes: Treated with sialidase
# B6: H54/L28-IgG1 (antibody, V domains shown)
# VH: QVQLQESGPGLVKPSETLSLTCAVSGYSISDDQAWSWVRQPPGEGLEWIGYISYSGITNYNPSLKGRVTISRDTSKNQFSLKLSSVTAADTAAYYCARSLARTTAMDYWGEGTLVTVSS
# VL: DIQMTQSPSSLSASVGDSVTITCQASQDISSYLNWYQQKPGKAPELLIYYGSELHSGVPSRFSGSGSGTDFTFTISSLEAEDAATYYCQQGNSLPYTFGQGTKVEIER
# notes: Humanized anti-IL-6 receptor antibody without pH or Ca dependency; not treated with sialidase; also called H54/L28-IgG1-SA (+); H54L28-IgG1-SA (+)
# B7: GL1-M111-SA (-) (antibody, human IgG1, kappa, N297A)
# heavy: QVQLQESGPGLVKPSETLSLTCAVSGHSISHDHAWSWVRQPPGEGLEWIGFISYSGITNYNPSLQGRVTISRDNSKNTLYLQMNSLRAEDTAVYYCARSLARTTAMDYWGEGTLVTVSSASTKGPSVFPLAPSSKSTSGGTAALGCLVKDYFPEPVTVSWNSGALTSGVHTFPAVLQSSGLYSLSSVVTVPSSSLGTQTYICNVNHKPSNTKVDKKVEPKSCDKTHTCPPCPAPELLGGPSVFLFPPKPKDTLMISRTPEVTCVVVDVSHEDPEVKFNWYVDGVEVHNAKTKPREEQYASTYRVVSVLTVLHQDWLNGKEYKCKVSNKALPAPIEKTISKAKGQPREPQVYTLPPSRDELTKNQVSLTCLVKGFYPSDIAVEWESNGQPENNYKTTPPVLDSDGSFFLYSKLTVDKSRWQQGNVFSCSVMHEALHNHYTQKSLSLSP
# light: B1 light
# notes: No sugar chain on heavy or light chain; treated with neuraminidase
# B8: GL5-M111-SA (-) (antibody, human IgG1, kappa, N297A)
# heavy: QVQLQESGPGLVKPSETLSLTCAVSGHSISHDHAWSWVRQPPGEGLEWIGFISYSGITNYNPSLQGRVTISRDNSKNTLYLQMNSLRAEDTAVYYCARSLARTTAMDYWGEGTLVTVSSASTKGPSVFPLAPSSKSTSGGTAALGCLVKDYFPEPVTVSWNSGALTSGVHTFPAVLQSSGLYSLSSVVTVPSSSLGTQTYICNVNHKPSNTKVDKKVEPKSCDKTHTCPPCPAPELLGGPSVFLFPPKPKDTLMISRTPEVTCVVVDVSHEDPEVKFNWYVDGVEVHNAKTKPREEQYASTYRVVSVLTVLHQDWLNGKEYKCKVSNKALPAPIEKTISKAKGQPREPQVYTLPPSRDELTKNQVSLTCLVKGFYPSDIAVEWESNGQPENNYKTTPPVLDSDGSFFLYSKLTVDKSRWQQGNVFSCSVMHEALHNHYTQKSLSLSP
# light: B1 light with S18N, Q24N
# modifications: two N-linked complex sugar chains (G2/G3/G4 combinations) at the sites introduced by Thr 20 to Asn and Gln 24 to Asn (Kabat), sialic acid removed, terminal galactose exposed
# notes: Treated with neuraminidase
# B9: GL2-M111-SA (-) (antibody, human IgG1, kappa, N297A)
# heavy: not shown
# light: B1 light with S18N
# modifications: N-linked complex sugar chain at the site introduced by Ser 18 to Asn (Kabat), sialic acid removed, terminal galactose exposed
# notes: Treated with neuraminidase
# B10: GL3-M111-SA (-) (antibody, human IgG1, kappa, N297A)
# heavy: not shown
# light: B1 light with T20N
# modifications: N-linked complex sugar chain at the site introduced by Thr 20 to Asn (Kabat), sialic acid removed, terminal galactose exposed
# notes: Treated with neuraminidase
# B11: GL4-M111-SA (-) (antibody, human IgG1, kappa, N297A)
# heavy: not shown
# light: B1 light with Q24N
# modifications: N-linked complex sugar chain at the site introduced by Gln 24 to Asn (Kabat), sialic acid removed, terminal galactose exposed
# notes: Treated with neuraminidase
# B12: GL6-M111-SA (-) (antibody, human IgG1, kappa, N297A)
# heavy: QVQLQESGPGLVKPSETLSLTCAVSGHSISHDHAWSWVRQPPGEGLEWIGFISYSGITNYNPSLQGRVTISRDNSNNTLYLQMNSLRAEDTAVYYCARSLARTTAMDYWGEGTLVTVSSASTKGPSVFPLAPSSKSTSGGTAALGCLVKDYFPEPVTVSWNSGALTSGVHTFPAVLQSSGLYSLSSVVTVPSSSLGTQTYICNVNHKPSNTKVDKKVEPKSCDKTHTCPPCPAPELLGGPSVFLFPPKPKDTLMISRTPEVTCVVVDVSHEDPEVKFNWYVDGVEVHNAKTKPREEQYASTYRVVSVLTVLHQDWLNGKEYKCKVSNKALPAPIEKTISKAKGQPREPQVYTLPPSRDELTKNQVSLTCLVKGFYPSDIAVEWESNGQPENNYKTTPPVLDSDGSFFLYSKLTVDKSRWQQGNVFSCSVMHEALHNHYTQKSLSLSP
# light: B1 light
# modifications: N-linked complex sugar chain at the site introduced by Lys 75 to Asn (Kabat), sialic acid removed, terminal galactose exposed
# notes: Treated with neuraminidase
# B13: GL7-M111-SA (-) (antibody, human IgG1, kappa, N297A)
# heavy: not shown
# light: B1 light with S18N
# modifications: N-linked complex sugar chain at the site introduced by Ser 18 to Asn (Kabat), sialic acid removed; N-linked complex sugar chain at the site introduced by Lys 75 to Asn (Kabat), sialic acid removed
# notes: Treated with neuraminidase
# B14: GL8-M111-SA (-) (antibody, human IgG1, kappa, N297A)
# heavy: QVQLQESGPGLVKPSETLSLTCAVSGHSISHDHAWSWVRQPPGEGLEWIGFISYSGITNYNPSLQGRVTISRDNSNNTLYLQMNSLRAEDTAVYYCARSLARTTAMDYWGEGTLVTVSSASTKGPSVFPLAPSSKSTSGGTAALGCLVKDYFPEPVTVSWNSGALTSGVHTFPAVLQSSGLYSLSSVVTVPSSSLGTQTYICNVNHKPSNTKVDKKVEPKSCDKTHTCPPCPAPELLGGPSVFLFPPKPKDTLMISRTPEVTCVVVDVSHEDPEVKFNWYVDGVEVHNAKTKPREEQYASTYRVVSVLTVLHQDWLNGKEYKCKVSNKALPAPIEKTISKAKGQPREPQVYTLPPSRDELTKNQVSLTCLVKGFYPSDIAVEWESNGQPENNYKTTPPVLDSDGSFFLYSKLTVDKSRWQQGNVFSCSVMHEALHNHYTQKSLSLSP
# light: B1 light with T20N
# modifications: N-linked complex sugar chain at the site introduced by Thr 20 to Asn (Kabat), sialic acid removed; N-linked complex sugar chain at the site introduced by Lys 75 to Asn (Kabat), sialic acid removed
# notes: Treated with neuraminidase
# B15: GL9-M111-SA (-) (antibody, human IgG1, kappa, N297A)
# heavy: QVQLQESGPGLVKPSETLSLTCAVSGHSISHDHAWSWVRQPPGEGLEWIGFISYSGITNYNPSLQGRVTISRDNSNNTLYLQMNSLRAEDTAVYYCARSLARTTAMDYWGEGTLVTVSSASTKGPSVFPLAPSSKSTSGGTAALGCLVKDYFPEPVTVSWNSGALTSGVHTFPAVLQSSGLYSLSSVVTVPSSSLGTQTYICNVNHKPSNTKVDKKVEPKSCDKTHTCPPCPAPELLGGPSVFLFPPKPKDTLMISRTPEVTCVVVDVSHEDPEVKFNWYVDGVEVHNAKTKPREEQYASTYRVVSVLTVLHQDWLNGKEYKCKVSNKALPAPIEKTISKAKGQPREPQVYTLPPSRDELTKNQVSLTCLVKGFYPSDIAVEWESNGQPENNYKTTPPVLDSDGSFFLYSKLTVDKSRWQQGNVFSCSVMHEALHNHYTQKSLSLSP
# light: B1 light with Q24N
# modifications: N-linked complex sugar chain at the site introduced by Gln 24 to Asn (Kabat), sialic acid removed; N-linked complex sugar chain at the site introduced by Lys 75 to Asn (Kabat), sialic acid removed
# notes: Treated with neuraminidase
# B16: GL10-M111-SA (-) (antibody, human IgG1, kappa, N297A)
# heavy: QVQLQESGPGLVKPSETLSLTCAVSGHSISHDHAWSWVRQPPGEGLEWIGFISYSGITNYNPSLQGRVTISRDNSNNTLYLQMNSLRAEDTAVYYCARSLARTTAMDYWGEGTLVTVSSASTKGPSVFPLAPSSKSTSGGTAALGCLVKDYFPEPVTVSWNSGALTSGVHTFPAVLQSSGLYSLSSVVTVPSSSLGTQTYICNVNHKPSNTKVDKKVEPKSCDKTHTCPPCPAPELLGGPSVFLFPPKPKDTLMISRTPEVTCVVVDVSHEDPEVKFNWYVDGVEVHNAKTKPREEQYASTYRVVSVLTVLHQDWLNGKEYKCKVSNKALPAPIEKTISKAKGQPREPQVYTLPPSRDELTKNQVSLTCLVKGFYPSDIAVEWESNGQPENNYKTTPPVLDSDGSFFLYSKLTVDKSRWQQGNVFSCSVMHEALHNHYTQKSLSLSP
# light: B1 light with S18N, Q24N
# modifications: two N-linked complex sugar chains at the sites introduced by Thr 20 to Asn and Gln 24 to Asn (Kabat), sialic acid removed; N-linked complex sugar chain at the site introduced by Lys 75 to Asn (Kabat), sialic acid removed
# notes: Treated with neuraminidase
# Biological target: T1, soluble human IL-6 receptor
# Assay: SPR (Biacore T100), antibody captured on anti-human IgG F(ab')2, human IL-6 receptor as analyte, 37 C, pH 6.0
# Method: (§1) Using Biacore T100 (GE Healthcare), kinetic analysis of antigen-antibody reactions between each of GL1-IgG1_kif+ and GL5-IgG1_kif+ and a human IL-6 receptor was performed. An appropriate amount of Anti-Human IgG (γ-chain specific) F(ab′)2 fragment antibody produced in goat (Sigma) was immobilized onto Sensor chip CM5 (GE Healthcare) by the amine coupling method and then a target antibody was allowed to capture. Subsequently, a human IL-6 receptor dilution solution and a running buffer (a blank) were injected at a flow rate of 20 μL/min for 3 minutes to allow the human IL-6 receptor to interact with the antibody captured on the sensor chip. Either one of two types of running buffers (pH 7.4 and pH 6.0 containing 10 mmol/L ACES, 150 mmol/L NaCl, and 0.05% (w/v) Tween20) was used, and each buffer was employed for dilution of IL-6R. Thereafter, a running buffer was fed at a flow rate 20 μL/min for 5 minutes. After dissociation of the IL-6 receptor was observed, a 10 mmol/L Glycine-HCl (pH 1.5) solution was injected at a flow rate of 30 μL/min for 5 seconds. This procedure was repeated five times to regenerate the sensor chip. All samples were measured at 37° C. […] From the values, KD (M) of each antibody to a human IL-6 receptor was calculated. Individual parameters were calculated by use of Biacore T100 Evaluation Software (GE Healthcare).
row,Binder,Kd [nM]
1,B1,71
2,B2,66

# Biological target: T1, soluble human IL-6 receptor
# Assay: as above
# Remark: another data set of the same source
# Method: (§2) GL1-IgG1-SA (−) and GL5-IgG1-SA (−) were treated with sialidase and then used as measurement samples. An appropriate amount of Anti-Human IgG (γ-chain specific), F(ab′)2 fragment antibody produced in goat (Sigma) was immobilized onto Sensor chip CM5 (GE Healthcare) in accordance with the amine coupling method and then a target antibody was allowed to capture. Subsequently, a human IL-6 receptor dilution solution and a running buffer (a blank) were injected at a flow rate of 20 μL/min for 3 minutes to allow the human IL-6 receptor to interact with the antibody captured on the sensor chip. Either one of two types of running buffers pH 7.4 and pH 6.0 containing 10 mmol/L ACES, 150 mmol/L NaCl, and 0.05% (w/v) Tween20 was used and each buffer was employed for dilution of IL-6R. Thereafter, a running buffer was fed at a flow rate 20 μL/min for 5 minutes. After dissociation of the IL-6 receptor was observed, 10 mmol/L Glycine-HCl (pH 1.5) was injected at a flow rate of 30 μL/min for 5 seconds. This procedure was repeated five times to regenerate the sensor chip. All samples were measured at 37° C. From the sensorgram obtained by measurement, an association constant, ka (1/Ms) and a dissociation constant kd (1/s) as kinetics parameters were computationally obtained. From the values, KD (M) of each antibody to a human IL-6 receptor was calculated. Individual parameters were calculated by use of Biacore T100 Evaluation Software (GE Healthcare).
row,Binder,Kd [nM]
1,B3,66
2,B4,61
3,B5,52
4,B6,3.4

# Biological target: T1, soluble human IL-6 receptor
# Assay: as above
# Remark: another data set of the same source
# Method: (§3) Then, kinetic analysis of an antigen-antibody reaction between each of GL1-M111-SA (−) and GL5-M111-SA (−) and a human IL-6 receptor was performed by using Biacore T100 (GE Healthcare). In both cases, measurement was performed by using an antibody treated with sialidase as a sample. An appropriate amount of Anti-Human IgG (γ-chain specific) F(ab′)2 fragment antibody produced in goat (Sigma) was immobilized onto Sensor chip CM5 (GE Healthcare) in accordance with the amine coupling method and then a target antibody was allowed to capture. Subsequently, a human IL-6 receptor dilution solution and a running buffer (a blank) were injected at a flow rate of 20 μL/min for 3 minutes to allow the human IL-6 receptor to interact with the antibody captured on the sensor chip. Either one of two types of running buffers pH 7.4 and pH 6.0 containing 10 mmol/L ACES, 150 mmol/L NaCl, and 0.05% (w/v) Tween20 was used, and each buffer was employed for dilution of IL-6R. Thereafter, a running buffer was fed at a flow rate 20 μL/min for 5 minutes. After dissociation of the IL-6 receptor was observed, 10 mmol/L Glycine-HCl (pH 1.5) was injected at a flow rate 30 μL/min for 5 seconds. […] All samples were measured at 37° C. […] From the values, KD (M) of each antibody to a human IL-6 receptor was calculated. Individual parameters were calculated by use of Biacore T100 Evaluation Software (GE Healthcare).
row,Binder,Kd [nM]
1,B7,66
2,B8,57

# Biological target: T1, soluble human IL-6 receptor
# Assay: SPR (Biacore T100), antibody captured on anti-human IgG F(ab')2, human IL-6 receptor as analyte, 37 C, pH 7.4
# Method: as §2
row,Binder,Kd [nM]
1,B3,2.1
2,B4,2.2
3,B5,1.9
4,B6,3.9

# Biological target: T1, soluble human IL-6 receptor
# Assay: as above
# Remark: another data set of the same source
# Method: as §1
row,Binder,Kd [nM]
1,B1,1.5
2,B2,1.4

# Biological target: T1, soluble human IL-6 receptor
# Assay: as above
# Remark: another data set of the same source
# Method: as §3
row,Binder,Kd [nM]
1,B7,2
2,B8,1.9

# Biological target: T1, soluble human IL-6 receptor
# Assay: SPR (Biacore T100), antibody captured on protein A, human IL-6 receptor as analyte, 37 C, pH 6.0
# Method: (§4) Kinetic analysis on the antigen-antibody reaction between each of GL1-IgG1-SA (−), GL1-M111-SA (−), GL2-M111-SA (−), GL3-M111-SA (−), GL4-M111-SA (−), GL5-M111-SA (−), GL6-M111-SA (−), GL7-M111-SA (−), GL8-M111-SA (−), GL9-M111-SA (−), GL10-M111-SA (−) and a human IL-6 receptor was performed by use of Biacore T100 (GE Healthcare). An appropriate amount of protein A (Invitrogen) was immobilized onto Sensor chip CM5 (GE Healthcare) by the amine coupling method and then a target antibody was allowed to capture. Subsequently, a human IL-6 receptor dilution solution and a running buffer (a blank) were injected at a flow rate of 20 μL/min for 3 minutes to allow the human IL-6 receptor to interact with the antibody captured on the sensor chip. Either one of two types of running buffers pH 7.4 and pH 6.0 containing 10 mmol/L ACES, 150 mmol/L NaCl, and 0.05% (w/v) Tween20 was used and each buffer was employed for dilution of IL-6R. Thereafter, the running buffer was fed at a flow rate of 20 μL/min for 5 minutes. After observation of dissociation of the IL-6 receptor, 10 mmol/L Glycine-HCl (pH 1.5) was injected at a flow rate of 30 μL/min for 30 seconds to regenerate the sensor chip. All samples were measured at 37° C. From the sensorgram obtained by measurement, an association constant, ka (1/Ms) and a dissociation constant, kd (1/s) as kinetics parameters were computationally obtained. Based on the obtained values, KD (M) of each antibody to a human IL-6 receptor was calculated. Individual parameters were calculated by use of Biacore T100 Evaluation Software (GE Healthcare).
row,Binder,Kd [nM]
1,B7,150
2,B4,150
3,B9,110
4,B10,80
5,B11,140
6,B8,99
7,B12,110
8,B13,150
9,B14,110
10,B15,110
11,B16,130

# Biological target: T1, soluble human IL-6 receptor
# Assay: SPR (Biacore T100), antibody captured on protein A, human IL-6 receptor as analyte, 37 C, pH 7.4
# Method: as §4
row,Binder,Kd [nM]
1,B7,1.8
2,B4,1.8
3,B9,1.6
4,B10,1.3
5,B11,1.7
6,B8,1.5
7,B12,2.6
8,B13,2.4
9,B14,2
10,B15,2.3
11,B16,2.4
